Assay: soluble fraction after stress (log2 fold change); higher = more stays soluble; pooled small domains, quantitative proteomics
Details: stress: pH 4
In short: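 Aggregation propensity is read out as the fold change in how much of each domain remains soluble after acid stress. The custom small-domain libraries were pooled, held at pH 4 and analysed with high-throughput quantitative proteomics. On the log2 scale used, higher values mean more of the domain stayed soluble.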

Sequence	soluble fraction (log2)
HMAHILDLMELKQILRLHMDGLSNRRISDTLGIHRNTINSYVSQFKASKHGIEELLKLSDYELAQLFP	-1.39
HMAHRYQQIADDLGRRVEAGEFAAGRLLPSEATLSGQYKASRVTVRKALEALRTDGLVESRQGFGWFVAAD	0.262
HMAIADQPISAEHFDKLRQVLNSNTQETIASAKQHWASISNNAEFTNENVTRTLLEEMLAFIKSAS	-0.887
HMAIDVQELARTRLRSLRTTLGYSLDELAARTHLSPSTISRLETGKRSLSLDVVVPLAQALHVSLDVLFEA	-0.666
HMAIEGIFEKYQRRSDQLIPILQDVQKEFGYIAPESVRHISRYLRISENQIFGVSSFYAQFRFT	-0.422
HMAIGTDPETGISVVADGTDFIWTRSGATSTIFLRLDSENSYILNVKQGDFEVIDYELGEGQENAINIDQS	-0.463
HMAIPEVDPAKQGVSATQLAALDALAHRNAGEGRVAGMVNVVIRNGEIVYYKATGPRHIDGGAPLKSTDLF	0.0394
HMAIQGVRLYERTLETGDPWLDRPLSTLSTGTRLIILVRRGGDVLIPKGDTVLLAGDTLVINDS	-1.94
HMAIRPDAAVSSHAVKQRLQSLIRAEDPAAPLSDEALRLALSALGIGVSRRAVAKYRAEMGIPSSSQRKK	0.168
HMAISQYGSQSDEVTKIQTRLKAWGYFDGPVTAYYGSQTTEAVKKFQQKHGLSATGVADAKTLELIGLP	0.056
HMAITLEQFLSVNPHIRNNLYGNAVELVKDKDFSVLSDKLKASSKWANEPSLYKILSHYDEIIS	0.207
HMAKDSQSADVLQAIFDGSKVLNGLALDQDMRWDLINGLVMSGRLGVEAIEAEAAKLAKLVEELEFR	-1.21
HMAKETLRANIKDYIQKQIASGVYRPGDRIVETQLAREMNVSQAPVREAILELVSLGLLEERPYSGHMVRQ	-0.843
HMAKIKVFELKNQINSLIKNKIESKDIIDFIETNFGVKKSHSSALEENEANFIKNYFVHADKA	-0.141
HMAKIPASTVVEIDGAPVVVAVRVNARARSYRLSIPHSGGPLLTLPPHGKWAEAEAFLLRHHNWLAARLHR	0.22
HMAKQEPTDNGYDIYKVTASVLNVRNGAGTSYAVAYQLSKEDYVEVVSIDKGWAKLKDGKYVSADWITLYK	-0.596
HMAKRINVKLIMELSAGGLTQNEIASSRHFSKTSVNLVLKTARELNVSAADLREMSPEEAYRLFFPEK	-0.0837
HMAKRKTEKTSVLEEIDGVGKARARALLARFGGLSGVKAASPEELRTVRGITPEIAENIRRYFQ	0.134
HMAKRMRNPNGYGSIVKLSGNRRNPYMVKVNTHMDERYYPVYDILGYYPTWADASIALAKYNDDPYNVS	0.0269
HMAKRQATIVYEGTNVRSGPSTSSAIVKRTGKGESYPIVSTKGDWYEIKLSNGDSAYVASWVVQTVD	-0.871
HMAKRYFVTTGVRVRTKPDTANSEVLTVLDEGSEIDYKGDYNNEWVKINYNGQEAYIAKQYVRSEE	-0.13
HMAKSDLNYLDFKSKLEAGEIAKASVIRNEDTFKVTLQNGEVYNVTSPDYEDFRKELLEAGVDIQVSK	0.022
HMAKSMRHLIVPSRETSLWRDKLSTNGWLSKGYGIHNLDDYRGIPLNETAPKIIEGLEITELEPIS	-0.755
HMAKTALEQAQAMVAAYVAAEQQILLGKEVRMGGPGIDRWLRFEDLQEVRAGRKEWESTVTRLQNTAA	-0.769
HMAKTGMDALVGRRVVLTKAIAGEGEGLVAVDGDVWRATSPAGSAIPKGTEVRITGYRSIVLEVEPI	0.139

Sequence	soluble fraction (log2)
HMAKYEVVAKDIISRIKQNEFETTLKLPTEDEMIEYYQVSRNTVRSALKLLTSQGIIFSRQGSGFYIRQRS	-0.117
HMALALSGVDLNRNRLTISWQTSKGVSYRVQRSSDLQSWTDVGAERLGNGNRLSHTQALNTESAFLRVII	-0.674
HMALEGTLARVSVRIPESGVGEIIFSLGGVRRSEAARSVSGRAIPRGTEVVILSYERGIATVQPYEELLTN	-0.256
HMALEVPGIAKDKIYRIFGQLYERQQKWEDAIDYYNRAVFFTLSGTDMILYQEDLSRVKQKISL	-0.152
HMALKRVAPQGEDKLSAQLDGVEFDKLIPWLGMLEHDHRIAIVNLSIDRANATGLVNARVIL	0.251
HMALKSGVIAHAVDDAVMRGLNVFTVSDDGSIVSMKDNDIVLGKDGKSPYSVSEWLEELKPNVPHWFG	-0.256
HMALKSYEDMVGKTGVAYTVLRPSGKVIINDELFDATARSGMIEKGNEVIIYDYKNAQLIVEK	-0.518
HMALPASLSPREREIVSLISQGKTNSEIASLLYISVPTVKTHISNIFQKTGVSNRTSLLNRLRMS	-0.0542
HMALPHEIKQKWLEEIMTMLRSSDSVTINKVYLHFPENKSHWVDEILTDLSNTHMITRQHDFIRLKN	-0.221
HMALQDKYKQLVDTATASGVANLQVREQDGVLYIDGEAPSGSVKDQLWDIYGKIDPNFLSGDVVMNINV	-1.12
HMALQLPFSFAKRHKVLVESAHEPVKVYHTPSTDFAVFAEVRRFLDQTFVLEEIAENRFEELLTSSFQRD	-1.46
HMALSETIYRLRTEHGLSQGDLAAELDVSRQSISKWETGSSVPELDKLVAMSRLFGVSLDELVLGE	-0.584
HMALSLPDDMTIVRKDGSSLEVRLKSRTVTEIHFERISDSETFQFSIDQLDETTRELVEQYPVM	-0.407
HMALTAEVLRSLIKHHGLGQSIQRTAKAVGLSASTVKKYFDRIAAANLTWQEAKSRTQEELIASLQPT	0.107
HMALTARDLGLTHRQADVLHLVLQGKPVKLIARDLGLAEGTVKSHVSAVLRALNVTTRTQAIVAAGRLGLM	≥ 0.43
HMAMDITLPLAEVRRQSLEQIERQYLNELMSKHLGRINRAAEAAGITTRQLHKLLTKYSIRKEDFK	0.0354
HMAMESDELETLVDQLIVDHPDEWSRFVGGDDGDRKKMQGFFTGQIMKATKGQADGRAVAQLLGQKSA	-0.337
HMAMLSKREAEILKLTAKGHSSTDIAQRLTISVNTVEFHRRRIMQKLNAANVAEAVGKAAELGLFF	-0.47
HMAMSAGEVVERIREHVGHPATIKELMRVLAIPNEERYRFRRRIKQLVEAGELIRIRGNRYGLADR	≥ 0.43
HMAMTITKIEKTSQQKIYYFTDSGRVFKKMSDRSATIAVDDRVELEGGVLGSKFFVTANGSRVKVKEV	0.0344
HMAMYSREKLKKLREDRGLTQYELAKIAGISVVTLNKIESSDSAKPFVKTLNKIAQALGVGIDELS	≥ 0.43
HMAMYYVIGGDGQQYGPIDEATVRGWLGEGRVSAASLSFKTGEAQWIPLRDRPELADVLATA	-0.311
HMANKLSEQIYGSILKDIVNGVYAPREFISEAQIAAKYGVSKAPVKEAMHILASEGFLLSYPKRGYMVN	0.109
HMANKQLQEKLKNYISENGSLSSAAKAIGLSPATLSTYLKDKYEGNVANVETRLTEIFETVEAANNLL	-0.313
HMANKTISMTTLKLVIQQLSKGISRQSISAQYHISRNTIKKYEKRIKAMDMKIEDILKLSDEEISNLLQ	-0.273

Sequence	soluble fraction (log2)
HMANLNFDMSQIVASRYQEKAAELGVTAPSLARTDYNTQEQATYEFVAREIIADYYDDRVAPFNDLIPE	-0.967
HMANNPISMIKIRQILRLHIQGRSKLQIAAQTGISRNTLKKYLKEFEASKLTYDEISELSDKDLEDLFIK	0.225
HMANTSAVIKQPGLVKLFAQHFVRNGFNAMKAAEAAGFVRPSPTFVRNLADSKPVKDAISELLGPYNDA	0.22
HMANWRVGQTINALVSDRMPSGGLLLTVGRQSFVTTRDIPVQPGARIMLEVQQVEPKLVLRLVSA	-0.236
HMAPADLSPEERVVLDALALEPVHVDALAAKLGRRSEELLTSLTLMEMRGLAVAHAGSRYSRATMT	-0.934
HMAPEEIPLDRVVRLVEQGRVESIVVTGERLEVTLQNGTVYGSTKENGVGFMETLDRYQVPLEQRDFSYEV	-0.72
HMAPELRSDAQMRRLWALAKENGLDEVGFRAFISDATGREVESTKSLTATEAHRLIEELEAP	-0.758
HMAPEPFIVQITASSLNVRKGPGTSYAVAQTVSKGQVFTIVQQQGGWGKLKSGAGWISLKYTAR	-0.0269
HMAPEQWYVLTSGQLPKGPYRLRHIVAMSKGDNWLVARKGAEQWTPLRHLPEFRQAQEANEYIQAIS	-0.122
HMAPFSGVEPREWDSLVERGRQSGEVHAEDVTHVLRHVELTGDVLTDVQSKMAEHGITIDDA	-0.0344
HMAPGASEVPDLTSLPAREALLRLTKLGLLPEMEGTGRLVRQQPAAGTRVPKGSKVHLVFEPG	0.0438
HMAPIEVPYNVFRQQVVEGNVESVATRADTVQGYFETPVTLPARPDAAAAEPVTVERFSTTLPSF	0.00217
HMAPKRIVLRFGKDISDKPIIYYLVKDYDLVINILKANVNPNKEGTLVLELSGENYDKGIEFLISQGVTVQ	-1.33
HMAPKVHLLKVPVDKIREIIGTGGKVIRQITEETGAKIDISDDGSVKVSSPDQSSIDAATTWITGIIAE	-0.102
HMAPLATLEAGEDGSVKLPNLAGHSIREVAAALGGAKLSLIPIGSGTSWKQTPAPGAVLHSGDTVTVYF	0.0923
HMAPNDELTRQVISVLSGTPQQAFNYKQISKKLNINDSSERRMVSNILRELAGKGEIVEVYQGKYRSKAPA	0.116
HMAPPTAEFFAHLPAEALSAVRRSVEEGNARGIDEAILRVETLDGEAGRVLRGLAARYEYGRILELTQR	-0.0842
HMAPQSAAAILRYLSSGAIRGVGPATAQRIVERFGTDSLEIIQNRPKELAAINGISINKALSISEEYAKQY	-0.0357
HMAPREELIAIHEALDKLEREDPQVSQLVKLRYFVGMTMAEAADAMDLKKRAAEALWTYGKAWLHREIKKN	-0.576
HMAPRIVTIQIPVDKIRDVIGPGGKVIRSIIERTGVKIDVEDDGRVNVASADGDSAQRAIAIIQELTAT	-0.0595
HMAPSIPSGADIRAAREAAGINLRDFARIVDGPGIAIWSRYETGTPIRVKSISPEVWQKVRDFISQHG	0.228
HMAPTADSVPFVIRSVVGGAQPFIVLEDGSKLLVGGVYRKYRLVAVENTRIIFEGPRTAIVT	-0.681
HMAPTPAGNLRSLKSEIVNYTRQSSTAYVYTFKDLSSGELYTARASRYYAAAGDTAYISTAAGAITDM	-0.0513
HMAPTVPEVVRLEEGAARSAIEAAGLSVGSVEFRASSDPAGTVLATRPIAGRKVRPSSAVDLVLSDGRTP	0.0751
HMAPVEEWAKASVMEDPTLVTETMARIFAQQGQIGKARKAYRHLALTYPAKSTYFAAQLKKLNQR	0.355
